US6482799B1, “Self-preserving multipurpose ophthalmic solutions incorporating a polypeptide antimicrobial” (The Regents of the University of California, priority 1999, dated 2002)
Where no end group is shown, it is not given here.

Experiment: Corneal penetration of radioactive topical ocular indolicidin formulation
Format: in vivo, New Zealand White Rabbits
Description: The objective of this study was to determine the corneal penetration potential of a ^3H-labelled indolicidin molecule. The ^3H labeled L-indolicidin; L-IND was tested for corneal penetration using New Zealand White Rabbits (Western Oregon Rabbit Co.). The rabbit is one of the model species for the assessment of toxicity and is one of the species recommended for that purpose by toxicity testing guidelines of all regulatory agencies. See “Animal Models in the Evaluation of Chemotherapy of Ocular Infections” in Experimental Models in Antimicrobial Chemotherapy, Vol 1, p 187-211.
Administration of ^3H-L-IND was by epicomeal application into both eyes, 20 μL L-IND once hourly for six applications. The animals were euthanized immediately prior to harvesting of aqueous humor.
Male animals were initiated as young adults and weighed 2-3 kg. Two animals were assigned to the test (2/group; one treatment group). […]
Clinical signs were evaluated immediately after 1st dose administration and immediately prior to euthanasia and necroscopy. […]
Evaluations were confined to the eye. […] An estimate of the total volume of aqueous humor harvested was recorded and analyzed for ^3H content. […]
The two samples of aqueous humor from each of the rabbits were analyzed for their radioactivity levels. […]

Substance: ^3H-Indolicidin: ^3H-labelled indolicidin molecule for the corneal penetration study (ILPWKWPWWPWRR-NH2; also: tritium label; UniProt P33046 131-143, looked up)
- radioactivity level in aqueous humor (20 μL epicorneal, once hourly for six applications, both eyes): equal to that of background counts
- corneal penetration (topical ocular, six applications): did not penetrate the cornea
